Where two headings read alike, the source gives them in different places.
How the values were obtained:
[1] = biological target: T1, Myc-RTA (IVT) (Kaposi's sarcoma-associated herpesvirus …, UniProt F5HCV3 1-691); assay: EMSA
[2] = biological target: T1, Myc-RTA (IVT); assay: EMSA; remark: listed apart in the source

T1 sequence (F5HCV3 whole entry): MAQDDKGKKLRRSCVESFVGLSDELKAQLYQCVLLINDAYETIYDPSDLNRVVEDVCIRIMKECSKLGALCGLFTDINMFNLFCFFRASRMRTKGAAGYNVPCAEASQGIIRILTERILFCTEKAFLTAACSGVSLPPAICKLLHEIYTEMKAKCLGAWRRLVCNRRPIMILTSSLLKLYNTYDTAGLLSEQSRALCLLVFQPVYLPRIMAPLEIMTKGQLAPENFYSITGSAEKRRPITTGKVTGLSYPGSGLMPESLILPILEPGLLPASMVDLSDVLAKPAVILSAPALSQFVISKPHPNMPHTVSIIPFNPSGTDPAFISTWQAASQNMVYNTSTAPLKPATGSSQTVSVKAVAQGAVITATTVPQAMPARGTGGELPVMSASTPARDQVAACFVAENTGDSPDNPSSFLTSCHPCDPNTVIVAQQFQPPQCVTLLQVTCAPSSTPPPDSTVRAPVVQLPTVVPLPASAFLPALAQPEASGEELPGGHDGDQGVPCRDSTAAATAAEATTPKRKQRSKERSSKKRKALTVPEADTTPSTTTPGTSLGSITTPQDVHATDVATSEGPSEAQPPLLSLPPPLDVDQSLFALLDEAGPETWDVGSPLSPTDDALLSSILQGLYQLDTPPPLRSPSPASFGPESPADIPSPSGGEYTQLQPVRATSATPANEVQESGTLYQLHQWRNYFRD

B1: 59pA (dsDNA)
DNA 1: ACACCACGTGTGTGACTGACGATTTGTGAAGGTTAACCTGTCCATGTCGC
DNA 2: GCGACATGGACAGGTTAACCTTCACAAATCGTCAGTCACACACGTGGTGT
- binding result [1]: binds

B2: 59pF (minimal RRE) (dsDNA)
DNA 1: CGATTTGTGAAGGTTAACCTGTCCATG
DNA 2: CATGGACAGGTTAACCTTCACAAATCG
- binding result [2]: binds
